In IntAct's records for PubMed 32761762:

B1: NAD-dependent protein deacetylase sirtuin-1 (Homo sapiens), Q96EB6 (parent)
chain: MADEAALALQPGGSPSAAGADREAASSPAGEPLRKRPRRDGPGLERSPGEPGGAAPEREVPAAARGCPGAAAAALWREAEAEAAAAGGEQEAQATAAAGEGDNGPGLQGPSREPPLADNLYDEDDDDEGEEEEEAAAAAIGYRDNLLFGDEIITNGFHSCESDEEDRASHASSSDWTPRPRIGPYTFVQQHLMIGTDPRTILKDLLPETIPPPELDDMTLWQIVINILSEPPKRKKRKDINTIEDAVKLLQECKKIIVLTGAGVSVSCGIPDFRSRDGIYARLAVDFPDLPDPQAMFDIEYFRKDPRPFFKFAKEIYPGQFQPSLCHKFIALSDKEGKLLRNYTQNIDTLEQVAGIQRIIQCHGSFATASCLICKYKVDCEAVRGDIFNQVVPRCPRCPADEPLAIMKPEIVFFGENLPEQFHRAMKYDKDEVDLLIVIGSSLKVRPVALIPSSIPHEVPQILINREPLPHLHFDVELLGDCDVIINELCHRLGGEYAKLCCNPVKLSEITEKPPRTQKELAYLSELPPTPLHVSEDSSSPERTSPPDSSVIVTLLDQAAKSNDDLDVSESKGCMEEKPQEVQTSRNVESIAEQMENPDLKNVGSSTGEKNERTSVAGTVRKCWPNRVAKEQISRRLDGNQYLFLPPNRYIFHGAEVYSDSEDDVLSSSSCGSNSDSGTCQSPSLEEPMEDESEIEEFYNGLEDEPDVPERAGGAGFGTDGDDQEAINEAISVKQEVTDMNYPSNKS
partner: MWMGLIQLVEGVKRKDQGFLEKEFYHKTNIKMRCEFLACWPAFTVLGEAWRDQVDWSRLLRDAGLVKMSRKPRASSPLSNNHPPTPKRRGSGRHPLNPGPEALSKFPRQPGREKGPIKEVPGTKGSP

Variants of: B1
Details: with csag2_human CSAG2, Q9Y5P2

effect of a mutation on the interaction	Variant
decreasing interaction	H363Y
